Source: paper PMC11117022 (Advanced Healthcare Materials, 2022)
Read-outs that look alike come from different tables or passages of the source.

Assays:
SEC [1] = target: the molecule itself; assay: SEC
SEC [2] = target: the molecule itself; assay: SEC; remark: listed apart in the source

B1: mouse SIINFEKL‐STINGΔTM (other, chicken | mouse)
chain: GLEQLESIINFEKLTEWTSSLTPAEVSAVCEEKKLNVAHGLAWSYYIGYLRLILPGLQARIRMFNQLHNNMLSGAGSRRLYILFPLDCGVPDNLSVVDPNIRFRDMLPQQNIDRAGIKNRVYSNSVYEILENGQPAGVCILEYATPLQTLFAMSQDAKAGFSREDRLEQAKLFCRTLEEILEDVPESRNNCRLIVYQEPTDGNSFSLSQEVLRHIRQEEKEEVTMNAPMTSVAPPPSVLSQEPRLLISGMDQPLPLRTDLI
Question: B1 was tested. Which “stoichiometry N” value (SEC [1]) did it give?
Answer: 2

Question: And the “stoichiometry N” value (SEC [2])?
Answer: 4
